The target in one series is HIVNL-4.3. As to conditions: single round infection assay, TZM-b1 cells. An excerpt: Two days later, infection cells were lysed and expression of luciferase activity measured.
HIV Neutralization assay.
These C-terminal peptides interact with the N-terminal coiled coil of gp41 thus blocking the refolding of gp41 into the six helical bundle structure ({115}, {116}. {117} and {39}).

Another series deals with mAb 2F5 Fabs. Briefly: chrtm5/2F5 Fab complex, Superdex 200 gel filtration and SDS-PAGE. It counts as binding. The following applies: gel filtration, peak analysed by SDS-PAGE. As to the method:
Chrtm5/2F5 Fab complexes were formed and purified on a Superdex 200 gel filtration column.
Fractions corresponding to the major peak shown in FIG. 10 were separated by SDS-PAGE and stained with Coomassie brilliant blue.
The oligomeric nature of chrtm5 was then further confirmed by purifying chrtm5 in complex with mAb 2F5 Fabs. This complex formation shifts the gel filtration profile to a larger molecular weight and chrtm5/2F5-Fab complexes elute at ˜12.5 ml (FIG. 10).
In general terms: Size exclusion chromatography separates by hydrodynamic size, large species first.

For another series, the system named is mAb 2F5. Briefly: Pull down assay of chrtm5 with mAb 2F5. Type of series: binding. As to the method: (§1) Lane 1—marker; Lane 2—control without antibody; Lane 3—mAb 2F5; and Lane 4—mAb 4E10.
(§2) Pull down assays were then performed to determine whether chrtm5 interacts with the neutralizing antibodies 2F5 and 4E10.

Another series has as its system mAb 4E10. The experiment in a line: Pull down assay of chrtm5 with mAb 4E10. It counts as binding. As to the method: as §1, §2
A further series deals with rabbits. The experiment in a line: Immunization of rabbits with chrtm5 proteoliposomes, Western blot of serum. It counts as in vivo. As to conditions: chrtm5 incorporated into proteoliposomes, two rounds of immunization, preliminary. As to the method: The oligomeric forms of CHRTM5 are indicated by numbers. The same pattern was obtained with serum dilutions of 1:50, 1:100 and 1:1000.
Liposome preparation. Phospholipids were dissolved in chloroform and dried under a steam of nitrogen. Lipid films were resuspended in reconstitution buffer (25 mM HEPES pH 7.4, 0.1 M KCl). The turbid MLV suspension was passed 21 times through a polycarbonate membrane to give large unilamellar vesicles (LUV) with a diameter of 100 nm. LUVs were solubilized with 20 mM β-OG for one hour at 4° C., and afterwards incubated with protein for an additional hour. The proteoliposome solution was dialyzed with a Liposomat against reconstitution buffer for three hours at room temperature. Pure proteoliposomes were separated from excess protein by gel filtration through a Sephadex G-50 column and were collected by ultracentrifugation at 250000×g for one hour at 4° C. The pellet of pure proteoliposomes was resuspended in reconstitution buffer. The proteoliposomes were used in immunization studies to determine the immunogenicity in rabbits.
chrtm5 can be incorporated into liposomes, which were used for immunization studies.
On the technique in general: Immunoblotting shows a protein as a band on a membrane.

Like-named read-outs stand apart in the source and are kept apart here.

As for enfuvirtide, the 50% inhibitory concentration (IC50) at HIVNL-4.3 (HIVNL-4.3, luciferase activity 2 days later) is 0.2 µg/mL; at HIVNL-4.3 (HIVNL-4.3, molar value in brackets), 45 nM.

B1: chrtm5: gp41 residues 118 to 200 with N-terminal HIS-tag, TEV and Enterokinase protease sites, transmembrane region, five cytoplasmic residues (protein)
chain: PCVKLTPLCVSLKCTDLKNDTNTNSSSGRMIMEKGEIKNCSFNISTSIRGKVQKEYAFFYKLDIIPIDNDTTSYKLTSCNTSV
modifications: left off: small tags and cut ends
notes: gp41 residues 118 to 200 with N-terminal HIS-tag, TEV and Enterokinase protease sites, transmembrane region, five cytoplasmic residues
Consider B1, for which, in the series with mAb 2F5 Fabs, the “complex formation with mAb 2F5 Fabs” value was “the peak contains both chrtm5 and 2F5 Fab fragments”. Moreover, in the series on mAb 2F5, the “pull down by antibody 2F5” value is reported as “both antibodies pull down chrtm5”. Further, in the series on mAb 4E10, the “pull down by antibody 4E10” value was “both antibodies pull down chrtm5”. Further, in the series on rabbits, the immunogenicity entry was “immunogenic in rabbits”.

A word on the IC50: it is the concentration that inhibits the measured activity by half.

These data come from patent US20090011000A1, “Inhibitors of Infection” (priority 2004, published 2009).
